Molecular target: HLA-A*02:01 (Homo sapiens, UniProt P04439, D140Y/D185E/D98H/E176V/E277Q/G131W/G231S/I119V/I121R/I166T/I218V/L300P/L318F/N151K/N90K/P208A/P217A/Q86G/Q94H/R138H/R169H/T345S)
Experiment: MHC binding assay (UV-ligand exchange, beta2m ELISA)
Details: binding of HLA-class I restricted peptides to HLA-A*02:01, β2m ELISA
Procedure, shortened: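 Exchange yield is an ELISA read-out: complexes diluted 100-fold, captured on streptavidin plates, detected with HRP anti-β2m and TMB at 450 nm. Standard curve from refolded HLA-A*02:01/MLA-001 (15-500 ng/ml); complexes made by UV-triggered displacement of a photolabile ligand by test peptide.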

Substance | Peptide Exchange (MHC class I binding score, peptide exchange yield)
173 (TVIENIHTI; listed as Homo sapiens) [compound 173] | “++” (≥20% = ++)
361 (ILQEFESKL; listed as Homo sapiens) [compound 361] | “+++” (≥50 = +++)
55 (FMEPTLLML; listed as Homo sapiens) [compound 55] | “+++” (≥50 = +++)
7 (ALLERTGYTL; listed as Homo sapiens) [compound 7] | “+++” (≥50 = +++)
47 (FLSDQPEPYL; listed as Homo sapiens) [compound 47] | “++” (≥20% = ++)
224 (AMEALVVEV; listed as Homo sapiens) [compound 224] | “+++” (≥50 = +++)
193 (YLDLSNNRL; listed as Homo sapiens) [compound 193] | “+++” (≥50 = +++)
223 (ALWVSQPPEI; listed as Homo sapiens) [compound 223] | “+++” (≥50 = +++)
296 (FIAPTGHSL; listed as Homo sapiens) [compound 296] | “++” (≥20% = ++)
317 (NLLAHIWAL; listed as Homo sapiens) [compound 317] | “+++” (≥50 = +++)
176 (VLAEQNIIPSA; listed as Homo sapiens) [compound 176] | “+++” (≥50 = +++)
117 (LLILENILL; listed as Homo sapiens) [compound 117] | “+++” (≥50 = +++)
373 (TLLADQGEIRV; listed as Homo sapiens) [compound 373] | “++” (≥20% = ++)
314 (LMKDCEAEV; listed as Homo sapiens) [compound 314] | “+++” (≥50 = +++)
379 (YLAELVTPIL; listed as Homo sapiens) [compound 379] | “+++” (≥50 = +++)
338 (FLDMTNWNL; listed as Homo sapiens) [compound 338] | “++++” (≥75% = ++++)
163 (SQLDISEPYKV; listed as Homo sapiens) [compound 163] | “+++” (≥50 = +++)
48 (FLSPQQPPLL; listed as Homo sapiens) [compound 48] | “+++” (≥50 = +++)
279 (YMAPEVVEA; listed as Homo sapiens) [compound 279] | “+++” (≥50 = +++)
162 (SMKDDLENV; listed as Homo sapiens) [compound 162] | “++” (≥20% = ++)
325 (TLENGVPCV; listed as Homo sapiens) [compound 325] | “+++” (≥50 = +++)
372 (SLFGPLPGPGPALV; listed as Homo sapiens) [compound 372] | “+++” (≥50 = +++)
365 (LISPLLLPV; listed as Homo sapiens) [compound 365] | “+++” (≥50 = +++)
239 (ILAGEMLSV; listed as Homo sapiens) [compound 239] | “+++” (≥50 = +++)
324 (SLYSALQQA; listed as Homo sapiens) [compound 324] | “+++” (≥50 = +++)
285 (GVATAGCVNEV; listed as Homo sapiens) [compound 285] | “++++” (≥75% = ++++)
381 (YLLEENKIKL; listed as Homo sapiens) [compound 381] | “+++” (≥50 = +++)
306 (VVAEELENV; listed as Homo sapiens) [compound 306] | “++” (≥20% = ++)
300 (ILLNPAYDVYL; listed as Homo sapiens) [compound 300] | “+++” (≥50 = +++)

Second part, the substance after the results:

Peptide Exchange (MHC class I binding score, peptide exchange yield) | Substance
“+++” (≥50 = +++) | 155 (SLMLEVPAL; listed as Homo sapiens) [compound 155]
“++” (≥20% = ++) | 65 (GLDDMKANL; listed as Homo sapiens) [compound 65]
“+++” (≥50 = +++) | 260 (SLDDVEGMSV; listed as Homo sapiens) [compound 260]
“+++” (≥50 = +++) | 207 (IIADLDTTIMFA; listed as Homo sapiens) [compound 207]
“+++” (≥50 = +++) | 137 (NLIKTVIKL; listed as Homo sapiens) [compound 137]
“+++” (≥50 = +++) | 359 (FMQDPMEVFV; listed as Homo sapiens) [compound 359]
“+++” (≥50 = +++) | 376 (VLYNQRVEEI; listed as Homo sapiens) [compound 376]
“+++” (≥50 = +++) | 371 (SLADDSVLERL; listed as Homo sapiens) [compound 371]
“+++” (≥50 = +++) | 72 (GLLDAGKMYV; listed as Homo sapiens) [compound 72]
“+++” (≥50 = +++) | 253 (NLWSVDGEVTV; listed as Homo sapiens) [compound 253]
“+++” (≥50 = +++) | 20 (ALVDPGPDFVV; listed as Homo sapiens) [compound 20]
“+++” (≥50 = +++) | 249 (LLPTGVFQV; listed as Homo sapiens) [compound 249]
“+++” (≥50 = +++) | 58 (YIQQGIFSV; listed as Homo sapiens) [compound 58]
“+++” (≥50 = +++) | 21 (ALWAGLLTL; listed as Homo sapiens) [compound 21]
“++++” (≥75% = ++++) | 245 (KIMDYSLLLGV; listed as Homo sapiens) [compound 245]
“+++” (≥50 = +++) | 315 (LVYEAPETV; listed as Homo sapiens) [compound 315]
“+++” (≥50 = +++) | 370 (SIFASPESV; listed as Homo sapiens) [compound 370]
“+++” (≥50 = +++) | 138 (NLLDIDAPVTV; listed as Homo sapiens) [compound 138]
“++” (≥20% = ++) | 123 (LLLAEAELLTL; listed as Homo sapiens) [compound 123]

Peptide Exchange (MHC class I binding score, peptide exchange yield) | Substance
“+++” (≥50 = +++) | 78 (GLPSFLTEV; listed as Homo sapiens) [compound 78]
“+++” (≥50 = +++) | 267 (TLLDWQDSL; listed as Homo sapiens) [compound 267]
“++++” (≥75% = ++++) | 194 (YLDNVLAEL; listed as Homo sapiens) [compound 194]
“+++” (≥50 = +++) | 108 (VIYTLIHYI; listed as Homo sapiens) [compound 108]
“++” (≥20% = ++) | 337 (YMYEKESEL; listed as Homo sapiens) [compound 337]
“+++” (≥50 = +++) | 346 (VLVQVSPSL; listed as Homo sapiens) [compound 346]
“+++” (≥50 = +++) | 82 (GLQSGVDIGV; listed as Homo sapiens) [compound 82]
“+++” (≥50 = +++) | 270 (TVLPVPPLSV; listed as Homo sapiens) [compound 270]
“+++” (≥50 = +++) | 255 (YLFEEAISM; listed as Homo sapiens) [compound 255]
“++” (≥20% = ++) | 218 (ALGEEWKGYVV; listed as Homo sapiens) [compound 218]
“+++” (≥50 = +++) | 151 (SLFDSAYGA; listed as Homo sapiens) [compound 151]
“+++” (≥50 = +++) | 122 (LLIPVVPGV; listed as Homo sapiens) [compound 122]
“+++” (≥50 = +++) | 211 (LIDVKPLGV; listed as Homo sapiens) [compound 211]
“+++” (≥50 = +++) | 60 (FVLDHEDGLNL; listed as Homo sapiens) [compound 60]
“+++” (≥50 = +++) | 156 (SLNIGDVQL; listed as Homo sapiens) [compound 156]
“+++” (≥50 = +++) | 295 (ALLQKLQQL; listed as Homo sapiens) [compound 295]
“+++” (≥50 = +++) | 174 (VLAELPIIVV; listed as Homo sapiens) [compound 174]
“+++” (≥50 = +++) | 145 (SALDTITTV; listed as Homo sapiens) [compound 145]
“+++” (≥50 = +++) | 348 (ALAKPPVVSV; listed as Homo sapiens) [compound 348]

Source: patent US10064928B2, “Peptides and combination of peptides for use in immunotherapy against CLL and other cancers” (IMMATICS BIOTECHNOLOGIES GMBH, priority 2015, dated 2018)
